Drawing on patent publication US6953794, this text covers Kd for one substance.

The target in the experiment is truncated core tau unit terminating at Ala-390 (human) (UniProt P10636). The experiment in a line: ELISA tau-tau binding assay; core tau unit in the solid phase, full-length tau in the aqueous phase.
Chain of truncated core tau unit terminating at Ala-390 (human) (P10636 614-707 limits assumed): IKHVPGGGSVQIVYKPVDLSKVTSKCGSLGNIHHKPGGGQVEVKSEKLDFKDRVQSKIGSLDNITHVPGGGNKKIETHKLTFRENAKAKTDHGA

In turn, “normal full-length tau protein (the particular tau species/isoform tested)” came in with a dissociation constant (Kd) of 8 to 25 nM.
